What was measured:
Assay in all cases: ELISA, lectin-captured E1E2 lysate, Ab 1 ug/ml;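 further: E1E2 captured on Galanthus nivalis lectin-coated plates, bound antibody read out via HRP-linked secondary antibody with TMB colorimetric substrate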
[1] = target: E1E2 complex (H77) with E2 mutation R630A (HCV genotype 1a, isolate H77, UniProt P27958 192-383; P27958 384-746)
[2] = target: E1E2 complex (H77) with E2 mutation G436A (HCV genotype 1a, isolate H77, UniProt P27958 192-383; P27958 384-746)
[3] = target: E1E2 complex (H77) with E2 mutation L427A (HCV genotype 1a, isolate H77, UniProt P27958 192-383; P27958 384-746)

B1: N4 IgG (antibody, V domains shown)
VH: VQLLEQSGPEVKKPGDSLRISCKMSGDSLVTTWIGWVRQKPGQGLEWMGIINPGDSSTNIYPGDSATRYGPSFQGQVTISIDKSTSTAYLQWNNVKASDTGIYYCARHVPVPISGTFLWREREMHDFGYFDDWGQGTLVIVSS
VL: ELTLTQSPGTLSLSPGERATLSCRASQSVSNNYLAWYQQKPGQAPRLLIYGASSRATGIPDRFSGSGSGTGFTLIISRLEPEDFAVYYCQQYGSSSITFGQGTRLEIKR
notes: also called IgG N4
- Binding relative to wt (%) [1]: 115%
- Binding relative to wt (%) [2]: 107%
- Binding relative to wt (%) [3]: 125%
